Results reported in patent US20190300590A1 (PROTAGONIST THERAPEUTICS, published 2019).
Like-named read-outs stand apart in the source and are kept apart here. *1 amine or outer side, *2 acyl side, *3 side chain or, on linkers, in order; H or OH if unused. Bridges are numbered along the chain shown (N, C = ends). [ ]: non-standard residue; d: D form. Phe(4-OMe) = 4-methoxy-L-phenylalanine (O-methyl-L-tyrosine), COc1ccc(C[C@H](N[*:1])C(=O)[*:2])cc1; Phe(3,4-(OMe)2) = COc1ccc(C[C@H](N)C(=O)O)cc1OC; 2Nal = N[C@@H](Cc1ccc2ccccc2c1)C(=O)O; AEF = NCCOc1ccc(C[C@H](N)C(=O)O)cc1; Cit = NC(=O)NCCC[C@H](N)C(=O)O; αMeL = CC(C)C[C@](C)(N)C(=O)O; hLeu = CC(C)CC[C@H](N)C(=O)O; αMeK = C[C@](N)(CCCCN)C(=O)O; αMeV = CC(C)[C@](C)(N)C(=O)O; Ac6c = NC1(C(=O)O)CCCCC1; Abu = CC[C@H](N)C(=O)O; βAla = NCCC(=O)O

Assays:
Rat IL-23R_huFC [1] = biological target: T1, Rat IL-23R_huFC (rat, UniProt F1LX96 39-369); assay: rat IL-23R competitive binding ELISA
T1 sequence: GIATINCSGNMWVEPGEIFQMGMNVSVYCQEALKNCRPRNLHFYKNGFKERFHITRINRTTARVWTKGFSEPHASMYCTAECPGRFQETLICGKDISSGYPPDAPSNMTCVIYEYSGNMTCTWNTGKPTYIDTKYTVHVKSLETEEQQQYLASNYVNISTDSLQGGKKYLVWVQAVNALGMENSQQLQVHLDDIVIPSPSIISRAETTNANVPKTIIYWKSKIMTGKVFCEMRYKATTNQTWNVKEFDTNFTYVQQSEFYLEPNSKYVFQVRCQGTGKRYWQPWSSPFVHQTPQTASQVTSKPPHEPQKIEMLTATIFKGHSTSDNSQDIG

IL-23R on DB cells = biological target: T2, IL-23R on DB cells (human, UniProt Q5VWK5 24-629); assay: cell-based or functional assay
T2 sequence (looked up): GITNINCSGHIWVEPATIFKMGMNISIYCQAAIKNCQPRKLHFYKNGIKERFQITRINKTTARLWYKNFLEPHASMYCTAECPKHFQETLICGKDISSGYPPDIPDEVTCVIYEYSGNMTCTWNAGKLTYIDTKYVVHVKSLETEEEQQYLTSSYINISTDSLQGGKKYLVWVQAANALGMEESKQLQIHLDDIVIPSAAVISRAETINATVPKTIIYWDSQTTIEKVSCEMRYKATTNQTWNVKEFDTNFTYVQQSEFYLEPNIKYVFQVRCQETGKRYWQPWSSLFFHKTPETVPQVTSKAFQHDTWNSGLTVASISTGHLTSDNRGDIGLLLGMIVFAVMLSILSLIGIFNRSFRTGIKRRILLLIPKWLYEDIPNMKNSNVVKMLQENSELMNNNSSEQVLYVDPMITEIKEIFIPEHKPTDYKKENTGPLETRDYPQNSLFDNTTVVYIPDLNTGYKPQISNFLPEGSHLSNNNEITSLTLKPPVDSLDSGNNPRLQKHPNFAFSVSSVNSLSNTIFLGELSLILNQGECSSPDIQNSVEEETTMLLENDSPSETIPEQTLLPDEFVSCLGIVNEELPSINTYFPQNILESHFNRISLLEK

[2] = biological target: T3, IL-23R on human cells (IL-23R-expressing DB cells; human NK cells) (human, UniProt Q5VWK5 24-629); assay: cell-based or functional assay
T3 sequence (looked up): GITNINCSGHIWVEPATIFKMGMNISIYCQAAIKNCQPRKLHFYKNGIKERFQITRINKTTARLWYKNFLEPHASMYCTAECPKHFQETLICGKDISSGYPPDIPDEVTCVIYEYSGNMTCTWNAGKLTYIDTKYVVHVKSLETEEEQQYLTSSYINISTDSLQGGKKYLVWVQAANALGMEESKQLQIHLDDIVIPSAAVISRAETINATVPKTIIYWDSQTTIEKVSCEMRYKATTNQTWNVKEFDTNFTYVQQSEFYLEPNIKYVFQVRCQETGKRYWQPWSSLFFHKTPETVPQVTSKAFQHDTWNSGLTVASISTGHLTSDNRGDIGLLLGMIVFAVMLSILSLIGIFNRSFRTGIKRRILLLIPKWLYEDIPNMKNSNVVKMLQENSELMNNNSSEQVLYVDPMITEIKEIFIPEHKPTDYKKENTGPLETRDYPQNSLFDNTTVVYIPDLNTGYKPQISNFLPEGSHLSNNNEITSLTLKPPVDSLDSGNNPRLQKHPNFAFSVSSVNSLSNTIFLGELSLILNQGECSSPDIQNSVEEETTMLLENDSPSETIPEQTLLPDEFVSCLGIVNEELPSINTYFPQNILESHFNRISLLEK

[3] = biological target: T3, IL-23R on human cells …; assay: cell-based or functional assay; remark: listed apart in the source
Rat IL-23R_huFC [4] = biological target: Rat IL-23R_huFC (rat); assay: rat ELISA vs IL-23
IL23R_huFC [5] = biological target: T4, IL23R_huFC (human, UniProt Q5VWK5 24-353); assay: human ELISA vs IL-23
T4 sequence (looked up): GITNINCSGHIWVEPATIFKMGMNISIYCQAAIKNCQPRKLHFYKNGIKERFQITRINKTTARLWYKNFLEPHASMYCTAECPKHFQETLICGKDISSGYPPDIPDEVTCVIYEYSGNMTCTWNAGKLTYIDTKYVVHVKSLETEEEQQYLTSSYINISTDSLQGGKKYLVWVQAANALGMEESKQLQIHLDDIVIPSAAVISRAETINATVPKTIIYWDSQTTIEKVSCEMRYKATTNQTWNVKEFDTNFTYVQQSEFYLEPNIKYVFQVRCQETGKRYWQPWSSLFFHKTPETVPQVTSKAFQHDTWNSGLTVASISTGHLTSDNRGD

Rat IL-23R_huFC [6] = biological target: Rat IL-23R_huFC (rat); assay: rat ELISA vs IL-23; remark: listed apart in the source
IL23R_huFC [7] = biological target: T4, IL23R_huFC; assay: human ELISA vs IL-23; remark: listed apart in the source
Rat IL-23R_huFC [8] = biological target: Rat IL-23R_huFC (rat); assay: rat ELISA vs IL-23; remark: listed apart in the source

B1: Ac-CRTWQCYWSEFGTGE-NH2 (peptide)
peptide: Ac-CRTWQCYWSEFGTGE-NH2
modifications: disulfide 1-6
SMILES: CC(=O)N[C@H]1CSSC[C@@H](C(=O)N[C@@H](Cc2ccc(O)cc2)C(=O)N[C@@H](Cc2c[nH]c3ccccc23)C(=O)N[C@@H](CO)C(=O)N[C@@H](CCC(=O)O)C(=O)N[C@@H](Cc2ccccc2)C(=O)NCC(=O)N[C@H](C(=O)NCC(=O)N[C@@H](CCC(=O)O)C(N)=O)[C@@H](C)O)NC(=O)[C@H](CCC(N)=O)NC(=O)[C@H](Cc2c[nH]c3ccccc23)NC(=O)[C@H]([C@@H](C)O)NC(=O)[C@H](CCCNC(=N)N)NC1=O
- IC50 (Rat IL-23R_huFC [1]): 778 nM

B2: [Ac-[Pen]-NTWQ-[Pen]-[Phe(4-CONH2)]-[2-Nal]-[4-amino-4-carboxy-tetrahydropyran]-KNN-NH2]2DIG (peptide)
peptide: XNTWQXFXXKNN
modifications: Ac; Pen-Pen disulfide; Phe(4-CONH2); 2-Nal; 4-amino-4-carboxy-tetrahydropyran; NH2; DIG linker joins the two subunits
- pStat3 HTRF IC50 (IL-23R on DB cells): < 10 nM

Binder: Ac-[Abu]QTWQC[AEF][2Nal][αMeL]QN[βAla]-NH2 (thioether 1-6) [Ac-Cyclo-[[Abu]-QTWQC]-[Phe[4-(2-aminoethoxy)]]-[2-Nal]-[α-MeLeu]-QN-[βAla]-NH2]
- NK cell assay IC50 (IFNγ) [2]: < 25 nM
- pStat3 HTRF IC50 [3]: < 10 nM

Binder: Ac-[Abu]QTWQC[Phe(4-OMe)][2Nal][αMeK]ENG-NH2 (thioether 1-6) [Ac-Cyclo-[[Abu]-QTWQC]-[Phe(4-OMe)]-[2-Nal]-[α-MeLys]-ENG-NH2]
- IC50 (Rat IL-23R_huFC [4]): 10 to 25 nM
- NK cell assay IC50 (IFNγ) [2]: < 25 nM
- pStat3 HTRF IC50 [3]: < 10 nM
- IC50 (IL23R_huFC [5]): 10 to 25 nM

Binder: Ac-[Abu]QTWQC[AEF][2Nal][αMeK]ENQ-NH2 (thioether 1-6) [Ac-Cyclo-[[Abu]-QTWQC]-[Phe[4-(2-aminoethoxy)]]-[2-Nal]-[α-MeLys]-ENQ-NH2]
- IC50 (Rat IL-23R_huFC [6]): < 10 nM
- NK cell assay IC50 (IFNγ) [2]: < 25 nM
- pStat3 HTRF IC50 [3]: < 10 nM
- IC50 (IL23R_huFC [7]): < 10 nM

Binder: Ac-[Abu]QTWQC[AEF][2Nal][αMeK]ENN-NH2 (thioether 1-6) [Ac-Cyclo-[[Abu]-QTWQC]-[Phe[4-(2-aminoethoxy)]]-[2-Nal]-[α-MeLys]-ENN-NH2]
- IC50 (Rat IL-23R_huFC [6]): < 10 nM
- NK cell assay IC50 (IFNγ) [2]: < 25 nM
- pStat3 HTRF IC50 [3]: < 10 nM
- IC50 (IL23R_huFC [7]): < 10 nM

Binder: Ac-[Abu]QTWQC[AEF][2Nal][αMeV]K(Ac)NG-NH2 (thioether 1-6) [Ac-Cyclo-[[Abu]-QTWQC]-[Phe[4-(2-aminoethoxy)]]-[2-Nal]-α-MeVal]-[Lys(Ac)]-NG-NH2]
- IC50 (Rat IL-23R_huFC [6]): < 10 nM
- NK cell assay IC50 (IFNγ) [2]: < 25 nM
- pStat3 HTRF IC50 [3]: < 10 nM
- IC50 (IL23R_huFC [7]): < 10 nM

B3: [Ac-[Pen]-NTWQ-[Pen]-[Phe(4-CONH2)]-[2-Nal]-[Aib]-KNN-NH2]2DIG (peptide)
peptide: XNTWQXFXXKNN
modifications: Ac; Pen-Pen disulfide; Phe(4-CONH2); 2-Nal; Aib; NH2; DIG linker joins the two subunits
- pStat3 HTRF IC50 (IL-23R on DB cells): < 10 nM

Binder: Ac-[Abu]QTWQC[AEF][2Nal][Ac6c]ENN-NH2 (thioether 1-6) [Ac-Cyclo-[[Abu]-QTWQC]-[Phe[4-(2-aminoethoxy)]]-[2-Nal]-[Achc]-ENN-NH2]
- NK cell assay IC50 (IFNγ) [2]: < 25 nM
- pStat3 HTRF IC50 [3]: < 10 nM

Binder: FXQTWQCFXXENN (as bracketed in name; thioether cyclo)
- NK cell assay IC50 (IFNγ) [2]: < 25 nM

Binder: Ac-[Abu]QTWQC[AEF][Phe(3,4-(OMe)2)][αMeK]K(Ac)NG-NH2 (thioether 1-6) [Ac-Cyclo-[[Abu]-QTWQC]-[Phe[4-(2-aminoethoxy)]]-[Phe(3,4-OMe2]-[α-MeLys]-[Lys(Ac)]-NG-NH2]
- IC50 (Rat IL-23R_huFC [8]): 25 to 100 nM
- NK cell assay IC50 (IFNγ) [2]: < 25 nM
- pStat3 HTRF IC50 [3]: < 10 nM
- IC50 (IL23R_huFC [5]): 10 to 25 nM

Binder: Ac-[Abu]QTWQC[AEF][2Nal][αMeL][Cit]NN-NH2 (thioether 1-6) [Ac-Cyclo-[[Abu]-QTWQC]-[Phe[4-(2-aminoethoxy)]]-[2-Nal]-[α-MeLeu)-[Cit]-NN-NH2]
- IC50 (Rat IL-23R_huFC [6]): < 10 nM
- NK cell assay IC50 (IFNγ) [2]: < 25 nM
- pStat3 HTRF IC50 [3]: < 10 nM
- IC50 (IL23R_huFC [7]): < 10 nM

Binder: Ac-CSTWECYWHTYG-NH2 (disulfide 1-6) [Ac-CSTWECYWHTYG-NH2]
- IC50 (Rat IL-23R_huFC [1]): 286 nM

Binder: Ac-CTTWQCYW[hLeu]ENG-NH2 (disulfide 1-6 (inferred)) [Ac-CTTWQCYW-[Leu]-ENG-NH2]
- IC50 (Rat IL-23R_huFC [1]): 28 nM

Binder: CQTWQCYWXENG (Ac; α-MeOrn; NH2) [Ac-CQTWQCYW-[α-MeOrn]-ENG-NH2]
- IC50 (Rat IL-23R_huFC [1]): 64 nM
